# Data: US20060239990A1, “Protein Arginine N-Methyltransferase 2 (PRMT-2)” (priority 2003, published 2006)
# T1: RB (Homo sapiens, UniProt P06400)
# T1 construct: coding region of RB cDNA was subcloned into pGEX-6P (Amersham/Pharmacia) for generation of GST-RB; made in house
# T1 sequence (P06400 1-928): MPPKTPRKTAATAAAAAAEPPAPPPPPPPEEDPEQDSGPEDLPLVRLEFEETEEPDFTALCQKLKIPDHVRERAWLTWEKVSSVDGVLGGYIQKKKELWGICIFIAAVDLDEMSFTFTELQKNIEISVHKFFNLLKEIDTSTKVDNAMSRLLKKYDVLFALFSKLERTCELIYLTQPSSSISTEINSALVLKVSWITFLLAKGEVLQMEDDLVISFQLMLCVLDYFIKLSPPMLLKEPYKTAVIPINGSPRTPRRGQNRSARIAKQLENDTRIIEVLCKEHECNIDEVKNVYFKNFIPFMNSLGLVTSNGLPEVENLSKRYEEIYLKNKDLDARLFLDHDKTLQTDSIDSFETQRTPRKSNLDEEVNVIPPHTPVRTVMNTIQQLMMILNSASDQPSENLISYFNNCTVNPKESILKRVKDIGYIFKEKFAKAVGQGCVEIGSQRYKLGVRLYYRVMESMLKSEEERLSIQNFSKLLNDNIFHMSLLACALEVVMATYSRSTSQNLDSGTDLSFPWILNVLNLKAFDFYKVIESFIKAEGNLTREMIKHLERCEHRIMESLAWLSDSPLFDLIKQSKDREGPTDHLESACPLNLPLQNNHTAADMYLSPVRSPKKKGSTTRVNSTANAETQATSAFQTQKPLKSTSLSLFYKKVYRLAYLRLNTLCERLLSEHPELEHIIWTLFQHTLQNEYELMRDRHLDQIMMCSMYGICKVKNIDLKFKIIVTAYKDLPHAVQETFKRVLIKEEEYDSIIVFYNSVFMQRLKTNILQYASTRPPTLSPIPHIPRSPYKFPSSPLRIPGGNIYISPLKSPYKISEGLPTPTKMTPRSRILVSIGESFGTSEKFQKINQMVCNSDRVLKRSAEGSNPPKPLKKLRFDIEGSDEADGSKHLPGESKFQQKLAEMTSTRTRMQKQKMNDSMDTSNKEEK
# B1: PRMT2(1-95): deletion mutant lacking the C-terminal and AdoMet binding domains, retains the SH3 domain (protein)
# chain: MATSGDCPRSESQGEEPAECSEAGLLQEGVQPEEFVAIADYAATDETQLSFLRGEKILILRQTTADWWWGERAGCCGYIPANHVGKHVDEYDPED
# B2: PRMT2(1-218): deletion mutant lacking the C-terminal domain, retains SH3 domain and a large part of the AdoMet binding domain (protein)
# chain: MATSGDCPRSESQGEEPAECSEAGLLQEGVQPEEFVAIADYAATDETQLSFLRGEKILILRQTTADWWWGERAGCCGYIPANHVGKHVDEYDPEDTWQDEEYFGSYGTLKLHLEMLADQPRTTKYHSVILQNKESLTDKVILDVGCGTGIISLFCAHYARPRAVYAVEASEMAQHTGQLVLQNGFADIITVYQQKVEDVVLPEKVDVLVSEWMGTCLL
# B3: PRMT3: human protein arginine methyltransferase 3, expression construct (protein)
# chain: CSLASGATGGRGAVENEEDLPELSDSGDEAAWEDEDDADLPHGKQQTPCLFCNRLFTSAEETFSHCKSEHQFNIDSMVHKHGLEFYGYIKLINFIRLKNPTVEYMNSIYNPVPWEKEEYLKPVLEDDLLLQFDVEDLYEPVSVPFSYPNGLSENTSVVEKLKHMEARALSAEAALARAREDLQKMKQFAQDFVMHTDVRTCSSSTSVIADLQEDEDGVYFSSYGHYGIHEEMLKDKIRTESYRDFIYQNPHIFKDKVVLDVGCGTGILSMFAAKAGAKKVLGVDQSEILYQAMDIIRLNKLEDTITLIKGKIEEVHLPVEKVDVIISEWMGYFLLFESMLDSVLYAKNKYLAKGGSVYPDICTISLVAVSDVNKHADRIAFWDDVYGFKMSCMKKAVIPEAVVEVLDPKTLISEPCGIKHIDCHTTSISDLEFSSDFTLKITRTSMCTAIAGYFDIYFEKNCHNRVVFSTGPQSTKTHWKQTVFLLEKPFSVKAGEALKGKVTVHKNKKDPRSLTVTLTLNNSTQTYGLQ
# B4: PRMT2-4A: amino acids 141-144 (ILDV) in the Ado-Met domain altered to four consecutive alanines, SEQ ID NO:6 (protein)
# chain: MATSGDCPRSESQGEEPAECSEAGLLQEGVQPEEFVAIADYAATDETQLSFLRGEKILILRQTTADWWWGERAGCCGYIPANHVGKHVDEYDPEDTWQDEEYFGSYGTLKLHLEMLADQPRTTKYHSVILQNKESLTDKVAAAAGCGTGIISLFCAHYARPRAVYAVEASEMAQHTGQLVLQNGFADIITVYQQKVEDVVLPEKVDVLVSEWMGTCLLFEFMIESILYARDAWLKEDGVIWPTMAALHLVPCSADKDYRSKVLFWDNAYEFNLSALKSLAVKEFFSKPKYNHILKPEDCLSEPCTILQLDMRTVQISDLETLRGELRFDIRKAGTLHGFTAWFSVHFQSLQEGQPPQVLSTGPFHPTTHWKQTLFMMDDPVPVHTGDVVTGSVVLQRNPVWRRHMSVALSWAVTSRQDPTSQKVGEKVFPIWR
# modifications: A synthetic PRMT-2-4A mutant polypeptide
# Key:
# RB = biological target: T1, RB; assay: In vitro binding assay with GST-RB; conditions: S35-labeled in vitro translated protein
# Experimental: The crude cell lysate of the GST-fusion proteins was prepared and purified according to the manufacture's protocol (Amersham/Pharmacia). [^35S]-methionine-labeled protein was produced by in vitro transcription/translation using the TNT T7-coupled reticulocyte lysate system (Promega). [^35S]-methionine-labeled protein and GST-fusion protein bound to glutathione sepharose 4B beads were incubated in 500 μl of HNE buffer (50 mM Hepes, pH 7.8, 150 mM NaCl, 1 mM EDTA, 1 mM DTT, 1% NP40, and 1× protease inhibitor mix (Complete: Roche)) at 4° C. for 1 hour. Beads were washed four times with HNE buffer, and then analyzed on an SDS-PAGE gradient gel (4-15%). For the detection of endogenous PRMT-2 interaction with RB, MEFs were lysed with WCL buffer (50 mM Hepes, pH 7.8, 400 mM NaCl, 2 mM EDTA, 1 mM DTT, 0.2% NP40, 10% Glycerol, 20 mM α-glycerophosphate, 5 mM NaF, 0.1 mM NaVO4, and 1× protease inhibitor mix). Then, 1 mg of whole cell extracts were incubated with HNE buffer without DTT and 3 μg of antibodies as indicated. The immune complexes were isolated using protein G beads, and washed four times with HNE buffer. The precipitated protein was boiled with SDS-loading buffer and resolved on SDS-PAGE. For immunoprecipitation of HA-tagged protein, transfected cells were lysed with RIPA buffer (phosphate buffer saline containing 1% NP40, 0.5% sodium deoxycholate, 0.1% SDS, and 1× Complete), and 100 μg of whole cell lysates were immunoprecipitated with anti-HA antibodies and washed in RIPA buffer. Western blot analysis was performed as described in Tanner et al. (1998). Circ Res, 82, 396-403.
# To test whether PRMT family members interact with RB, S^35-labeled in vitro translated PRMT1, PRMT2, PRMT3, and PRMT4 (CARM1) were incubated with GST-RB fusion proteins or control GST, and co-precipitated labeled proteins were resolved by SDS-PAGE. […] An equal amount of GST-RB and GST were loaded in each lane, verified by Coomassie staining (FIG. 8B).
# HIV-1 LTR = assay: HIV-1 reporter transcription, transient co-transfection; format: cell-based, human; conditions: 293T cells, co-transfection
# Experimental: (§1) Cell culture, transfection, and reporter gene assays. The E1A-transformed, human kidney cell line, 293, and NIH-3T3 cells were maintained in Dulbecco's Modified Eagle Medium (DMEM) supplemented with 10% fetal calf serum and penicillin-streptomycin at 37° C. in 5% carbon dioxide in tissue culture grade Petri dishes. PRMT-2−/− mouse embryo fibroblasts (MEFs) and wild type MEFs were prepared from day 13.5 embryos and maintained in DMEM supplemented with 10% fetal calf serum. MEFs at passage 4 were used in this experiment. Lipofectamine Plus™ reagent (Boehringer Mannheim) was used to transfect both 293 and NIH-3T3 cells according to directions from the manufacturer. […] TNF-α stimulation of cells was done using recombinant TNF-α (200 U/ml) for 12 hours. Transfected cells were harvested at 36 hours, and CAT activity was assayed on 10 to 100 μg of protein from whole cell extracts. CAT assays were performed essentially as described in Leung, K. & Nabel, G. J. Nature 333, 776-778 (1988). To analyze the κB-reporter activity in MEFs, cells were transfected with the reporter (2×kB-Luc) and PRL-TK vector (Promega) using FuGENE6 transfection reagent (Roche). Luciferase activity was analyzed by Dual-Luciferase Reporter Assay System (Promega).
# To determine whether PRMT-1, 2 or 3 could affect NF-κB function, their potential to regulate effects on transcription of the human immunodeficiency virus type 1 (HIV-1) was examined. Transient co-transfections were performed using PRMT1, PRMT2 and PRMT3 expression plasmids with an HIV-1 reporter plasmid in the human renal epithelial cell line, 293T.
# To determine its dependence on NF-κB, human immunodeficiency virus type 1 (HIV-1) reporter plasmids with wild-type (WT) or mutant (ΔκB) sites were co-transfected transiently with control or PRMT2 expression plasmids in the different cell lines. […] The KB effect was dose-dependent and was also observed with other inducers of NF-κB, including phorbol […] (PMA) (FIG. 2B, right panel).
# NF-κB = NF-κB luciferase reporter assay in 293T cells; format: cell-based, human; conditions: 1 μg expression construct, 100 ng 5 κB luciferase reporter
# Experimental: as §1, with “Transfected cells were harvested at 36 hours, and CAT activity was assayed on 10 to 100 μg of protein from whole cell extracts.” left out
# To map the domains responsible for inhibition of HIV transcription, truncation and point mutations were made in PRMT2 (FIG. 1D) and co-transfected with an NF-κB reporter in 293T cells. PRMT2-A represents an alternatively spliced form of PRMT2 found in the expressed sequence tag (EST) database. This isoform contains the first 218 amino acids of PRMT2 and differs from full length PRMT2 by the absence of the less conserved COOH-terminal domain. PRMT2-N was generated by introducing a stop codon after amino acid 95 before the putative Ado-Met domain of PRMT2. To analyze the role of the Ado-Met domain further, another mutant, PRMT2-4A, was prepared in which 141ILDV144 (SEQ ID NO:5) in this region were altered to four consecutive alanines to compare the effects of point mutations in this highly conserved region.
# The mechanism and site of action of PRMT2 in the NF-κB signaling pathway was further defined by co-transfection of PRMT2 and its mutants with different regulators in this pathway with an NF-κB reporter in 293T cells (FIG. 2D).
Molecule,binding to RB (RB),effect on transcription of the HIV-1 reporter plasmid (HIV-1 LTR),NF-κB activity (NF-κB)
B1,did not bind GST-RB,,
B2,bound GST-RB at levels comparable to that of wild type PRMT2,,
B3,do not bind RB,did not affect transcription,
B4,,,inhibited NF-κB activity
